Our source for the Kd values is doi:10.1101/2020.12.20.423708 (bioRxiv, 2020).

The term Kd denotes a measure of binding affinity in units of concentration. The low end stands for tighter binding, the high end for weaker binding.

For the test, the target named is SARS-CoV-2 spike ectodomain, HexaPro variant (SARS-CoV-2, Wuhan-Hu-1 (MN908947), stabilised). The experiment in a line: BLI. A general note: Biolayer interferometry detects binding as a change in optical thickness at a sensor tip.

B1: CM31 recombinant plasma mAb (subject P3, Lin.3) (antibody, V domains shown)
VH: QVTLKESGPTLVKPTQTLTLTCTVSGFSLSTNGVGVAWVRQPPGKALEWLGLIYWDDAQRYGPSLKSRLTITKDTSKNQVVLTLTNMDPVDTGTYYCSHVWVNSTHRQIDYWGQGTLVTVSS
VL: QPVLTQPPSSSASPGESARLTCTLPSDFNVGSYNIYWYQKRPGSPPRYLLYYYSDSDKGQGSGVPSRFSGSKDASANTGILLISGLQSEDEADYYCMIWPINGVVFGGGTKLTVL
B1 came in with a Kd of 37.7 nM.

B2: CM30 recombinant plasma mAb (subject P3, Lin.2) (antibody, V domains shown)
VH: QVQLVESGGGLVKPGGSLRLSCAASGFTFSDYYMSWIRQAPGKGLEWVSSIDGSTSYTKYADSVKGRFTISRDNAKNSLYLQMNSLRAEDTAVYYCARVGPAVAGSPFDSWGQGTLVTVSS
VL: EIVLTQSPATLSLSPGERATLSCRASQSVSTYLAWYQQKPGQAPRLLIFDASNRATGIPARFSGSGSGTDFTLTISSLEPEDFAVYYCQQRSNWLFSFGPGTKVDIK
For B2, binding was put at a Kd of 0.8 nM. Compared with the last molecule, the Kd is about 47-fold lower.

B3: CM32 recombinant plasma mAb (subject P3, Lin.4) (antibody, V domains shown)
VH: QVQLVQSGPEVKKPGASVKVSCQTSGYSFSDHYLHWVRQTPGQGFEWMGWIKPKSGATNSADNFQDRVTMTADASVNTAYMELSSLRPDDTAVYYCARGHRIPSAISDKYDFWGQGTLVTVSS
VL: QSVLTQPASVSASPGQSITISCTGTSSDVGGYDYVSWYQHHPDNAPKLLIFEVSNRPSGVSNRFSGSKSGNAASLTISGLLAEDEADYFCTSYSSGRTPYVFGTGTKVTVL
Molecule B3 came in with a dissociation constant Kd of 6 nM.

B4: CM29 recombinant plasma mAb (subject P3, Lin.1) (antibody, V domains shown)
VH: QVQLVESGGGVVQPGRSLRLSCAASGFTLSKYGMHWVRQAPDKGLEWVALMSYDGSIKYYGDSVKGRFTVSRDSSKNTLYLQMNNLRDDDTAVYFCARGAMAGNSSFDHWGQGTLVTVSS
VL: not shown
B4 displayed a Kd of 6.6 nM.
